Results published in the supplement of paper PMC9170038.

Test system: MS2 coat protein
Experiment: apparent KD of MS2 coat protein; designed switch direction (-1 OFF switch, 1 ON switch): 1; higher = weaker reporter binding
Procedure, shortened: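 The reported apparent KD is a per-design median over clusters, from curve fits of normalised cluster fluorescence. Protein titrations used SNAP-549-labelled MS2 coat protein, doubled from 0.7 or 1.5 nM to 3 µM, in Tris-HCl pH 7.5 buffer with KCl, MgCl2, BSA, DTT, tRNA and Tween-20, with no input, 200 uM small-molecule ligand, or an oligonucleotide input. The RNA switches were transcribed on Illumina chips by stalled E. coli RNA polymerase.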

[1] = input ligand: microRNA oligo, concentration not stated
[2] = Eterna round: R95, input ligand: FMN 200 uM
[3] = Eterna round: R95, input ligand: microRNA oligo, concentration not stated
[4] = Eterna round: R95, input ligand: none

Sequence | apparent KD of MS2 coat protein (input ligand: FMN 200 uM) [nM] | apparent KD of MS2 coat protein [1] [nM] | apparent KD of MS2 coat protein (input ligand: none) [nM] | apparent KD of MS2 coat protein [2] [nM] | apparent KD of MS2 coat protein [3] [nM] | apparent KD of MS2 coat protein [4] [nM]
ACCCGCGGGCCACAUGAGGAUCACCCAUGUGACCGGUGAUCCAAGGAUAUGUGUAGGGUAGAUGCACAGAAGGUGGCCAAAACU [Ainriqu] (Eterna round: R96, puzzle: Same State NG 3) | 26.6 | 14.8 | 18.5 |  |  | 
ACCGAGAGGCUAGGAUAUUAGGGCAUUUGCAUAUGAGAAGGAGCCAGAUGGCCACAUGAGGAUCACCCAUGUCAACCCUGGACA [Eternabot solution 4] (Eterna round: R96, puzzle: Same State NG 1) | 22.5 | 12.9 | 18.2 |  |  | 
ACGCAGCUAGGUGAGGAUAUCGGUGGUAAAACAUGAGGAUCACCCAUGUCCGAAGCUCGGACUUCCGAGAAGGCGCCCGGCUGCA [Velaberi] (Eterna round: R96, puzzle: Same State 2) | 12.7 | 78.8 | 106 |  |  | 
ACGCAGCUAGGUGAGGAUAUCGGUGGUAAAACAUGAGGAUCACCCAUGUCCGAAGCUCGGACUUCCGAGAAGGCGCCCGGCUGCA [Velaberi] (puzzle: Same State 2) |  |  |  | 13.9 | 64.2 | 96.2
ACUUAGUACAAUUUAGAUCUACAUGAGGAUCACCCAUGUACUGAGGAUAUCAGCUCGAUUAGAGCUGAGAAGGCAGAAGUACUU [SSNG3/8-A2] (Eterna round: R96, puzzle: Same State NG 3) | 45.4 | 159 | 220 |  |  | 
AGAAGACAUGAGGAUCACCCAUGUACCUCAUAAGGAGAGAGCGAGGAUAUGUAGAGAGAGAGGGAGCAGAAGGUGUGGGAGGAA [Default title] (Eterna round: R96, puzzle: Same State NG 3) | 283 | 192 | 262 |  |  | 
AGAAUACAUGAGGAUCACCCAUGUCAACGUAGUCGAGGAUAUGGGCAGCCGUGAGGCGUACUAGAAGGCGAAGAGA [Mat - Same State 1 - Mod of JL - D6] (puzzle: Same State 1) |  |  |  | 99.8 | 437 | 280
AGAGAACAUGAGGAUCACCCAUGUAGGAUGGGCAUAGGAUAUAGAGGAAUGAGGGAGGAGCUAGAAGGAUGAUGGA [JR_SS1_Sub078] (puzzle: Same State 1) |  |  |  | 110 | 192 | 145
AGAGCCGGCACUGAGGAUAUUCAUAUUAAAACAUGAGGAUCACCCAUGUAGGCCAGAAGGCCUUGGGAGAAGGCAGGUCGGCUCG [Mat - Same State 2 - Mod of UCT - D57] (puzzle: Same State 2) |  |  |  | 23.5 | 244 | 350
AGAUAGUGUGGAAAGGAUAUACUGUUGAGGACAUGAGGAUCACCCAUGUGGUAGAGGAGGUAAGGGUAGAAGGUUCGGGAUUGGU [JR_SS@_Sub019] (puzzle: Same State 2) |  |  |  | 32.6 | 34.5 | 47.1
AGAUCAUGACGAGGAUAUGCCACAUGAGGAUCACCCAUGUAUGUGGUAGGACGCGUACGUCCAAAGCAGAAGGCGUCGUGGUCA [JL SSNG2 1.01] (Eterna round: R96, puzzle: Same State NG 2) | 17.2 | 28.5 | 55.5 |  |  | 
AGAUCAUGACGAGGAUAUGGUACAUGAGGAUCACCCAUGUAUGUACCACGACGGAAACGUCGAAUCCAGAAGGCGUCAUGAUCA [Mat - Same State NG 2 - JL mod - D24] (Eterna round: R96, puzzle: Same State NG 2) | 30.5 | 109 | 130 |  |  | 
AGAUCAUGACGAGGAUAUGGUACAUGAGGAUCACCCAUGUAUGUACUAUAACCCGAAUGAGGAAUCCAGAAGGCGUCGUGGUCA [JL SSNG2 1.13] (Eterna round: R96, puzzle: Same State NG 2) | 24.4 | 56.3 | 93 |  |  | 
AGAUGUUAAUCAGGAUAUGGGCACAUGAGGAUCACCCAUGUAACGUAGAUACGAUGUGGUCAAGUCUAGAAGGGAUGGCUAACA [SameState NG2 #79] (Eterna round: R96, puzzle: Same State NG 2) | 49.9 | 68.2 | 90.7 |  |  | 
AGAUGUUAAUUAGGAUAUGGACACAUGAGGAUCACCCAUGUAACGUAGAUACGAUGUGGUCAAGUCUAGAAGGGAUAGCUAACA [SameState NG2 #76] (Eterna round: R96, puzzle: Same State NG 2) | 39.9 | 35.2 | 40.3 |  |  | 
AGCCGAGACACAGGAUAUAGAUGUCUACAUGAGGAUCACCCAUGUAGCAACACGUGGUAGUGAUUCUAGAAGGGUGCUCGGCGC [Omei SS(NG)2 Cv10] (Eterna round: R96, puzzle: Same State NG 2) | 13.1 | 20.5 | 28.7 |  |  | 
AGCCUGAGUCGAGGAUAUUAUGGAUCCUCUAAUACAUGAGGAUCACCCAUGUAAUUAAUUAUACAUGAGAAGGCGACUCAGGCA [SSNG2/12-A3] (Eterna round: R96, puzzle: Same State NG 2) | 98.7 | 69.4 | 25.5 |  |  | 
AGCGCGAUCUCGCAGGAUAUCCACAUUCCUACAUGAGGAUCACCCAUGUCGCUGCAGGAUAUUAGGGAGAAGGGUGAUGUCGCGC [Arxeinor] (puzzle: Same State 2) |  |  |  | 21.4 | 32.6 | 34.8
AGCUAGUACCGAGGAUAUACGUACAUGAGGAUCACCCAUGUAUACAUGAUUAAAUGAGACUACAUGUAGAAGGCGGUACUAGCA [Mat - Same State NG 2 - JL mod - D48] (Eterna round: R96, puzzle: Same State NG 2) | 15 | 27.1 | 48.1 |  |  | 
AGCUAUCGAAAACGAUAGCAAAAGCAUGUACAUGAGGAUCACCCAUGUCAUGUACAAGCUUUUUGCUCGUCUUAAAA [JL zipper 23] (Eterna round: R96, puzzle: Sensor for hsa-mir-208a) | 919 | 14.3 | 1000 |  |  | 
AGCUAUCGAAAACGAUAGCAAAAGCAUGUACAUGAGGAUCACCCAUGUCAUGUAUAAGCUUUUUGCUCGUCUUAAAA [Zipper 23 - 12] (puzzle: Sensor for hsa-mir-208a) |  |  |  | 42.7 | 9.86 | 34.4
AGCUAUCGAAAACGAUAGCAAAAGCAUGUACAUGAGGAUCACCCAUGUCAUGUGCAAGCUUUUUGCUCGUCUUAAAA [Zipper 23 - 4] (puzzle: Sensor for hsa-mir-208a) |  |  |  | 163 | 10.7 | 208
AGCUAUUAAUCAGGAUAUGGUCACAUGAGGAUCACCCAUGUAUCGAUGAUAUGAUGUGGUCAAUACUAGAAGGGAUUGCUAACA [SameState NG2 #64] (Eterna round: R96, puzzle: Same State NG 2) | 180 | 104 | 152 |  |  | 
AGGCCAUCAGGAGGAUAUGGCACCUUAUUGGUGCCAGAAGGUCUAACAUGAGGAUCACCCAUGUGGGUGUGGUCGAAAGACCAC [Fiskers NG1(ss) - 5] (Eterna round: R96, puzzle: Same State NG 1) | 99.9 | 71.2 | 98 |  |  | 
AGGCUGAGUCGAGGAUAUUAUGGAUCCUCUAAUACAUGAGGAUCACCCAUGUAAUUAAUUAUACAUGAGAAGGCGACUCAGCCU [SSNG2/12-A4] (Eterna round: R96, puzzle: Same State NG 2) | 533 | 15 | 34.7 |  |  | 
AGGUAACAUGAGGAUCACCCAUGUAAGGUGAACGUAGGAUAUCGAAGAGGUAGAGUAGGACGAGAAGGACGAGGAA [JR_SS1_Sub091] (puzzle: Same State 1) |  |  |  | 218 | 239 | 414
AGUAGUGUAACAUGAGGAUCACCCAUGUAAGAAGAUGUAACCUAGGAUAUGGAUGUUAUGUUUGACCAGAAGGAGGAUUGUUUA [JR_SSNG3_Sub040] (Eterna round: R96, puzzle: Same State NG 3) | 22.6 | 32.1 | 37.1 |  |  | 
AGUAUACAUGAGGAUCACCCAUGUCAACGUAGUCGAGGAUAUGGGCAGCCGUGAGGCGUACCAGAAGGCGAAGAGA [Mat - Same State 1 - Mod of JL - D5] (puzzle: Same State 1) |  |  |  | 24.5 | 50.5 | 68.6
AGUCCAGCCAAAGCUGGACAAAAGCAUGUACAUGAGGAUCACCCAUGUCAUGUACAAGCUUUUUGCUCGUCUUAAUA [Mat - hsa-mir-208a - Mod of JL - D38] (puzzle: Sensor for hsa-mir-208a) |  |  |  | 464 | 16 | 611
AGUCCAGCCUGAGCUGGACAAAAGCAUGUACAUGAGGAUCACCCAUGUCAUGUACAAGCUUUUUGCUCAAAAUAAUA [Mat - hsa-mir-208a - Mod of JL - D33] (puzzle: Sensor for hsa-mir-208a) |  |  |  | 957 | 14.8 | 607
